Legend:
[1] = molecular target: SARS-CoV-2 RBD (residues 319–541), Wuhan-Hu-1 (SARS-CoV-2) (UniProt P0DTC2); assay: BLI
ACE2-COMP (human | rat) = ACE2-COMP (human | rat) (UniProt Q9BYF1); assay: negative stain electron microscopy

ACE2-COMP (from UniProt Q9BYF1 19-615; P35444 29-73)
Kd [1]: < 0.025 nM
percent of bound ACE2 still attached after more than 8 h of dissociation [1]: 90%
stoichiometry N (ACE2-COMP (human | rat)): 5

Source: publication PMC11862925
